According to patent US20210290733A1, “INJECTABLE MICRONIZED HUMAN INSULIN” (ARVEN ILAC SANAYI VE TICARET ANONIM SIRKETI, priority 2018, published 2021):

Columns and labels:
[1] = Particle size measurement of human insulin before and after micronization; format: physicochemical
Method: According to one embodiment of the present invention, after micronization, the micronized human insulin has a d(0.1) particle size which is less than 5 μm or less than 3 μm or less than 2 μm.
According to one embodiment of the present invention, the micronized human insulin particles were prepared by using supercritical fluid process.

[2] = Bioactivity test (USP limit, USP 121 Insulin Assays); conditions: for Bioactivity: USP limit min. 15 IU/mg
Method: According to one embodiment of the present invention, the composition is prepared by based on USP 121 formula (The United States Pharmacopeial Convention 2015, [121] Insulin Assays). This is important in order to minimize the risk of adverse effects, both local and systemic. It is important that human insulin in the composition is used without extra excipients because, its amino acid sequence and biological activity are the same as those of the human body and are safe and have no toxic or side effects.

Substance	d(0.1) particle size ([1]; Before Micronization)	d(0.5) particle size ([1]; Before Micronization)	d(0.9) particle size ([1]; Before Micronization)	Bioactivity ([2]; Before Micronization)	d(0.1) particle size ([1]; After Micronization)	d(0.5) particle size ([1]; After Micronization)	d(0.9) particle size ([1]; After Micronization)	Bioactivity ([2]; After Micronization)	Protein activity at the end of the micronization process (versus before) ([2]; without any change in protein structure)
human insulin: recombinant human insulin, unmodified primary structure, before micronization	1.96 μm	13.24 μm	25.12 μm	16.02 IU/mg	–	–	–	–	–
micronized human insulin: recombinant, unmodified human insulin with particle size reduced by supercritical fluid (SAS) process	–	–	–	–	1.654 μm	5.273 μm	12.54 μm	34.72 IU/mg	protein activity increased
